# In patent publication US20140348819A1, “Methods of Treating Cancer” (Dana-Farber Cancer Institute, Inc., priority 2011, published 2014):
# B1: VEGF-C (protein, UniProt P49767 112-227, looked up)
# Vascular endothelial growth …: AHYNTEILKSIDNEWRKTQCMPREVCIDVGKEFGVATNTFFKPPCVSVYRCGGCCNSEGLQCMNTSTSYLSKTLFEITVPLSQGPKPVTISFANHTSCRCMSKLDVYRQVHSIIRR
# System: six V600E BRAF melanoma cell lines
# Test: Screening of recombinant RTK ligands for ability to confer resistance to BRAFi (PLX4720) or MEKi (PD184352) (Table 4)
# Type: cell-based, human
# Parameters: ability of recombinant RTK ligand to confer resistance / ability of recombinant RTK ligand to confer resistance (screening value): scale not given here
# Experimental: HGF is the only one that can substantially confer drug resistance to the cell lines.
# The complexity of the tumor microenvironment is much greater than an in vitro co-culture system. Therefore, the inventors explored whether the activation of other RTKs could result in a similar resistance as that observed with the activation of MET. To this end, six V600E BRAF melanoma cell lines were tested for their resistance to either BRAFi (PLX4720) or MEKi (PD184352) after the addition of 22 RTK ligands that have the potential of activating almost all known RTKs. […] The activation of a selected subset of these RTKs was confirmed by western blotting and by high throughput tyrosine kinase phosphorylation profiling.
molecule,measurement,setting,value
B1,ability of recombinant RTK ligand to confer resistance,"A2058, PD184352 - 1 uM, ligand 1.6 ng/ml",1.01
same,ability of recombinant RTK ligand to confer resistance,"A2058, PD184352 - 1 uM, ligand 6.25 ng/ml",1.02
same,ability of recombinant RTK ligand to confer resistance,"A2058, PD184352 - 1 uM, ligand 25 ng/ml",1.01
same,ability of recombinant RTK ligand to confer resistance,"A2058, PD184352 - 1 uM, ligand 100 ng/ml",0.99
same,ability of recombinant RTK ligand to confer resistance,"A2058, PD184352 - 1 uM, ligand 400 ng/ml",0.94
same,ability of recombinant RTK ligand to confer resistance,"A2058, PLX4720 - 2 uM, ligand 1.6 ng/ml",1.03
same,ability of recombinant RTK ligand to confer resistance,"A2058, PLX4720 - 2 uM, ligand 6.25 ng/ml",1.04
same,ability of recombinant RTK ligand to confer resistance,"A2058, PLX4720 - 2 uM, ligand 25 ng/ml",1.05
same,ability of recombinant RTK ligand to confer resistance,"A2058, PLX4720 - 2 uM, ligand 100 ng/ml",1.04
same,ability of recombinant RTK ligand to confer resistance,"A2058, PLX4720 - 2 uM, ligand 400 ng/ml",1.02
same,ability of recombinant RTK ligand to confer resistance,"C32, PD184352 - 1 uM, ligand 1.6 ng/ml",1.06
same,ability of recombinant RTK ligand to confer resistance,"C32, PD184352 - 1 uM, ligand 6.25 ng/ml",1.03
same,ability of recombinant RTK ligand to confer resistance,"C32, PD184352 - 1 uM, ligand 25 ng/ml",1.16
same,ability of recombinant RTK ligand to confer resistance,"C32, PD184352 - 1 uM, ligand 100 ng/ml",1.00
same,ability of recombinant RTK ligand to confer resistance,"C32, PD184352 - 1 uM, ligand 400 ng/ml",1.07
same,ability of recombinant RTK ligand to confer resistance,"C32, PLX4720 - 2 uM, ligand 1.6 ng/ml",0.94
same,ability of recombinant RTK ligand to confer resistance,"C32, PLX4720 - 2 uM, ligand 6.25 ng/ml",1.09
same,ability of recombinant RTK ligand to confer resistance,"C32, PLX4720 - 2 uM, ligand 25 ng/ml",1.06
same,ability of recombinant RTK ligand to confer resistance,"C32, PLX4720 - 2 uM, ligand 100 ng/ml",1.08
same,ability of recombinant RTK ligand to confer resistance,"C32, PLX4720 - 2 uM, ligand 400 ng/ml",1.08
same,ability of recombinant RTK ligand to confer resistance,"Colo 829, PD184352 - 1 uM, ligand 1.6 ng/ml",0.97
same,ability of recombinant RTK ligand to confer resistance,"Colo 829, PD184352 - 1 uM, ligand 6.25 ng/ml",1.02
same,ability of recombinant RTK ligand to confer resistance,"Colo 829, PD184352 - 1 uM, ligand 25 ng/ml",0.94
same,ability of recombinant RTK ligand to confer resistance,"Colo 829, PD184352 - 1 uM, ligand 100 ng/ml",0.95
same,ability of recombinant RTK ligand to confer resistance,"Colo 829, PD184352 - 1 uM, ligand 400 ng/ml",0.90
same,ability of recombinant RTK ligand to confer resistance,"Colo 829, PLX4720 - 2 uM, ligand 1.6 ng/ml",0.99
same,ability of recombinant RTK ligand to confer resistance,"Colo 829, PLX4720 - 2 uM, ligand 6.25 ng/ml",1.00
same,ability of recombinant RTK ligand to confer resistance,"Colo 829, PLX4720 - 2 uM, ligand 25 ng/ml",0.92
same,ability of recombinant RTK ligand to confer resistance,"Colo 829, PLX4720 - 2 uM, ligand 100 ng/ml",0.95
same,ability of recombinant RTK ligand to confer resistance,"Colo 829, PLX4720 - 2 uM, ligand 400 ng/ml",0.90
same,ability of recombinant RTK ligand to confer resistance,"G-361, PD184352 - 1 uM, ligand 1.6 ng/ml",0.97
same,ability of recombinant RTK ligand to confer resistance,"G-361, PD184352 - 1 uM, ligand 6.25 ng/ml",0.97
same,ability of recombinant RTK ligand to confer resistance,"G-361, PD184352 - 1 uM, ligand 25 ng/ml",0.91
same,ability of recombinant RTK ligand to confer resistance,"G-361, PD184352 - 1 uM, ligand 100 ng/ml",0.90
same,ability of recombinant RTK ligand to confer resistance,"G-361, PD184352 - 1 uM, ligand 400 ng/ml",0.89
same,ability of recombinant RTK ligand to confer resistance,"G-361, PLX4720 - 2 uM, ligand 1.6 ng/ml",1.01
same,ability of recombinant RTK ligand to confer resistance,"G-361, PLX4720 - 2 uM, ligand 6.25 ng/ml",0.97
same,ability of recombinant RTK ligand to confer resistance,"G-361, PLX4720 - 2 uM, ligand 25 ng/ml",0.92
same,ability of recombinant RTK ligand to confer resistance,"G-361, PLX4720 - 2 uM, ligand 100 ng/ml",0.88
same,ability of recombinant RTK ligand to confer resistance,"G-361, PLX4720 - 2 uM, ligand 400 ng/ml",0.85
same,ability of recombinant RTK ligand to confer resistance,"SK-MEL-5, PD184352 - 1 uM, ligand 1.6 ng/ml",0.97
same,ability of recombinant RTK ligand to confer resistance,"SK-MEL-5, PD184352 - 1 uM, ligand 6.25 ng/ml",0.36
same,ability of recombinant RTK ligand to confer resistance,"SK-MEL-5, PD184352 - 1 uM, ligand 25 ng/ml",0.96
same,ability of recombinant RTK ligand to confer resistance,"SK-MEL-5, PD184352 - 1 uM, ligand 100 ng/ml",0.98
same,ability of recombinant RTK ligand to confer resistance,"SK-MEL-5, PD184352 - 1 uM, ligand 400 ng/ml",0.33
same,ability of recombinant RTK ligand to confer resistance,"SK-MEL-5, PLX4720 - 2 uM, ligand 1.6 ng/ml",0.95
same,ability of recombinant RTK ligand to confer resistance,"SK-MEL-5, PLX4720 - 2 uM, ligand 6.25 ng/ml",0.83
same,ability of recombinant RTK ligand to confer resistance,"SK-MEL-5, PLX4720 - 2 uM, ligand 25 ng/ml",0.87
same,ability of recombinant RTK ligand to confer resistance,"SK-MEL-5, PLX4720 - 2 uM, ligand 100 ng/ml",0.92
same,ability of recombinant RTK ligand to confer resistance,"SK-MEL-5, PLX4720 - 2 uM, ligand 400 ng/ml",0.85
same,ability of recombinant RTK ligand to confer resistance,"SK-MEL-28, PD184352 - 1 uM, ligand 1.6 ng/ml",1.09
same,ability of recombinant RTK ligand to confer resistance,"SK-MEL-28, PD184352 - 1 uM, ligand 6.25 ng/ml",0.95
same,ability of recombinant RTK ligand to confer resistance,"SK-MEL-28, PD184352 - 1 uM, ligand 25 ng/ml",0.90
same,ability of recombinant RTK ligand to confer resistance,"SK-MEL-28, PD184352 - 1 uM, ligand 100 ng/ml",1.08
same,ability of recombinant RTK ligand to confer resistance,"SK-MEL-28, PD184352 - 1 uM, ligand 400 ng/ml",0.85
same,ability of recombinant RTK ligand to confer resistance,"SK-MEL-28, PLX4720 - 2 uM, ligand 1.6 ng/ml",1.05
same,ability of recombinant RTK ligand to confer resistance,"SK-MEL-28, PLX4720 - 2 uM, ligand 6.25 ng/ml",0.94
same,ability of recombinant RTK ligand to confer resistance,"SK-MEL-28, PLX4720 - 2 uM, ligand 25 ng/ml",0.98
same,ability of recombinant RTK ligand to confer resistance,"SK-MEL-28, PLX4720 - 2 uM, ligand 100 ng/ml",1.01
same,ability of recombinant RTK ligand to confer resistance,"SK-MEL-28, PLX4720 - 2 uM, ligand 400 ng/ml",0.89
